Positions count from the first letter of the chain named. Values belong to the binder of their own block, whether it stands above or below them.
Key:
[1] = biological target: T1, B7H3 (antigen of the affinity statements) (human, UniProt Q5ZPR3 29-466, limits assumed); test: monovalent affinity in 1+1 bsAb format (Example 2B)
T1 construct: also called CD276
T1 sequence (looked up): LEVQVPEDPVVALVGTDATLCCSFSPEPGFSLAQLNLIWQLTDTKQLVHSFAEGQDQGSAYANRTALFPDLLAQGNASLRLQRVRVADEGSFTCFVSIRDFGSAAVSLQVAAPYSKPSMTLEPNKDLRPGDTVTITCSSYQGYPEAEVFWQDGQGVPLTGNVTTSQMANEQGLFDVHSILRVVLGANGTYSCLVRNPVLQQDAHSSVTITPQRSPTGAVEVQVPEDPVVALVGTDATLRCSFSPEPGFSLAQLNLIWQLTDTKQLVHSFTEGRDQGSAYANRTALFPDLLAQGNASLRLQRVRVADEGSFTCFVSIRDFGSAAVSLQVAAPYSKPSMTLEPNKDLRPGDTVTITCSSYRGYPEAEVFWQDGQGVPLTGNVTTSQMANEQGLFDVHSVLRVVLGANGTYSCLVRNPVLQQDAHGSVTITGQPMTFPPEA

[2] = biological target: T2, CD28 (antigen of the affinity determinations) (human, UniProt P10747 19-152, limits assumed); test: binding affinity of the CD28 binding domain; method not given
T2 construct: also called human CD28

[3] = biological target: T3, mouse Fc fusion of B7H3, full extracellular V1C1-V2C2 domain (human, UniProt Q5ZPR3 29-466); test: Octet (BLI), B7H3 mouse Fc fusions on anti-mouse Fc biosensors, 1:1 Langmuir fit
T3 construct: extracellular domain; Fusions of the single V1C1 and V2C2 domains were tested as well; also called B7H3 antigen; printed 'V1C1-V2V2'; not shown: mouse Fc
T3 sequence (looked up): T1 sequence (looked up)
Text: To investigate whether the difference observed for XENP34339 resulted from the difference in B7H3 binding domain or the difference in bispecific antibody format, the component binding domains of XENP34339 and XENP34389 were biophysically characterized using Octet. […] Anti-mouse Fc biosensors were used to capture mouse Fc fusions of B7H3, either the full extracellular V1C1-[…] domain or the individual V1C1 or V2C2 domains, and dipped into multiple concentrations of XENP34717 or XENP34728. Kinetic analyses were performed by global fitting of binding data with a 1:1 Langmuir binding model. […] Next, the binding affinities of the CD28 binding domains for CD28 antigen in the 2+1 CLC format and the 2+1 Fab2-scFv-Fc format was investigated. Anti-HIS capture (HIS1K) biosensors were used to capture CD28-Fc-His protein and dipped into multiple concentrations of XENP34339 or XENP34389. Kinetic analyses were performed by global fitting of binding data with a 1:1 Langmuir binding model as well as steady state model. The resulting dissociation constant (KD) are depicted in FIG. 53.

B1: XENP35153 (bispecific antibody)
heavy: EVQLLESGGGLVQPGGSLRLSCAVSGFSLSSYGVIWVRQAPGKGLEYVSWVSSGGSTNYASSVKGRFTISRDTSKNTVYLQMNSLRAEDTAVYFCARGATNSGTDIWGPGTLVTVSSASTKGPSVFPLAPSSKSTSGGTAALGCLVKDYFPEPVTVSWNSGALTSGVHTFPAVLQSSGLYSLSSVVTVPSSSLGTQTYICNVNHKPSDTKVDKKVEPKSCDKTHTCPPCPAPPVAGPSVFLFPPKPKDTLMISRTPEVTCVVVDVKHEDPEVKFNWYVDGVEVHNAKTKPREEEYNSTYRVVSVLTVLHQDWLNGKEYKCKVSNKALPAPIEKTISKAKGQPREPQVYTLPPSREEMTKNQVSLTCDVSGFYPSDIAVEWESDGQPENNYKTTPPVLDSDGSFFLYSKLTVDKSRWEQGDVFSCSVLHEALHSHYTQKSLSLSPGK
scFv-Fc: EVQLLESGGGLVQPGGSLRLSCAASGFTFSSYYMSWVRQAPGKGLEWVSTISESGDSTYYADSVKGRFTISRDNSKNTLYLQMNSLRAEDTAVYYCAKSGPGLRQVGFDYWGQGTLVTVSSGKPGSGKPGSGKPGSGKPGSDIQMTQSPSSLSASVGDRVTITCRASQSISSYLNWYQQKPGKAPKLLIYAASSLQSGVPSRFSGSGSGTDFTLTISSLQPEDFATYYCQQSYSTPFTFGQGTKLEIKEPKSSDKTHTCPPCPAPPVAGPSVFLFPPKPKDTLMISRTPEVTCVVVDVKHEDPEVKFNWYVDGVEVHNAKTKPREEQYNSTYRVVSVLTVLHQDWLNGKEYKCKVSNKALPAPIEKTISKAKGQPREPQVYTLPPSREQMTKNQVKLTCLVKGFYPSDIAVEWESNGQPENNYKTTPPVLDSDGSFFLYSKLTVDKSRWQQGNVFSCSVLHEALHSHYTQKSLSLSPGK
light: DIVMTQSPSSLSASVGDRVTITCRASQSINSWLSWYQQKPGKPPKLLIYGASNLASGVPSRFKGSGSGTDFTLTISSLQPEDFATYYCQNNYGIIAAGATFGGGTKVEIKRTVAAPSVFIFPPSDEQLKSGTASVVCLLNNFYPREAKVQWKVDNALQSGNSQESVTEQDSKDSTYSLSSTLTLSKADYEKHKVYACEVTHQGLSSPVTKSFNRGEC
notes: 1+1 Fab-scFv-Fc; copies: 1 + 1 + 1
binding result [1]: binds

B2: XENP34339 (bispecific antibody)
heavy 1: EVQLLESGGGLVQPGGSLRLSCAASGFTFSSYYMSWVRQAPGKGLEWVSTISESGDSTYYADSVKGRFTISRDNSKNTLYLQMNSLRAEDTAVYYCAKSGPGLRQVGFDYWGQGTLVTVSSASTKGPSVFPLAPSSKSTSGGTAALGCLVKDYFPEPVTVSWNSGALTSGVHTFPAVLQSSGLYSLSSVVTVPSSSLGTQTYICNVNHKPSDTKVDKKVEPKSCDKTHTCPPCPAPPVAGPSVFLFPPKPKDTLMISRTPEVTCVVVDVKHEDPEVKFNWYVDGVEVHNAKTKPREEEYNSTYRVVSVLTVLHQDWLNGKEYKCKVSNKALPAPIEKTISKAKGQPREPQVYTLPPSREEMTKNQVSLTCDVSGFYPSDIAVEWESDGQPENNYKTTPPVLDSDGSFFLYSKLTVDKSRWEQGDVFSCSVMHEALHNHYTQKSLSLSPGK
heavy 2: QVQLVQSGAEVKKPGASVKVSCKASGYIFTNNYMHWVRQAPGQGLEWMGIISPSVGRTAYAQKFQGRVTMTRDTSTSTVYMELSSLRSEDTAVYYCARGGGSSPRLDYWGQGTLVTVSSASTKGPSVFPLAPSSKSTSGGTAALGCLVKDYFPEPVTVSWNSGALTSGVHTFPAVLQSSGLYSLSSVVTVPSSSLGTQTYICNVNHKPSNTKVDKKVEPKSCGKPGSGKPGSQVQLVQSGAEVKKPGASVKVSCKASGYIFTNNYMHWVRQAPGQGLEWMGIISPSVGRTAYAQKFQGRVTMTRDTSTSTVYMELSSLRSEDTAVYYCARGGGSSPRLDYWGQGTLVTVSSASTKGPSVFPLAPSSKSTSGGTAALGCLVKDYFPEPVTVSWNSGALTSGVHTFPAVLQSSGLYSLSSVVTVPSSSLGTQTYICNVNHKPSNTKVDKKVEPKSCDKTHTCPPCPAPPVAGPSVFLFPPKPKDTLMISRTPEVTCVVVDVKHEDPEVKFNWYVDGVEVHNAKTKPREEQYNSTYRVVSVLTVLHQDWLNGKEYKCKVSNKALPAPIEKTISKAKGQPREPQVYTLPPSREQMTKNQVKLTCLVKGFYPSDIAVEWESNGQPENNYKTTPPVLDSDGSFFLYSKLTVDKSRWQQGNVFSCSVMHEALHNHYTQKSLSLSPGK
light: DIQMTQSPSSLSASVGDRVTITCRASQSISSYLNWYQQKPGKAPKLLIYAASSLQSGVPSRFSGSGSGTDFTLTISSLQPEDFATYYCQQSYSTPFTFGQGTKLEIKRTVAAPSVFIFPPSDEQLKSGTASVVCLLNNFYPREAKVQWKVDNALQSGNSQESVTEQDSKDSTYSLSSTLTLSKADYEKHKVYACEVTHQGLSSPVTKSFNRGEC
notes: 2+1 CLC format; also called B7H3 x CD28 bsAb in 2+1 CLC format; copies: 1 + 1 + 3
Kd [2]: 77 nM

B4: XENP35611 (bispecific antibody)
heavy 1: B2 heavy 1 with Y33A, E53G
heavy 2: B2 heavy 2
light: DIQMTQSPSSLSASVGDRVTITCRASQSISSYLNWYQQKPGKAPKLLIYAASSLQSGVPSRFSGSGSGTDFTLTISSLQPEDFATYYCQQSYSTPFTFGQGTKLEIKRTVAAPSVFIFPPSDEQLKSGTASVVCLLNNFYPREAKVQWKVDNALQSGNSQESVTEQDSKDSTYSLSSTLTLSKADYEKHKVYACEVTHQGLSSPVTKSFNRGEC
notes: 2+1 CLC format; copies: 1 + 1 + 3
Kd [2]: 610 nM

B6: XENP34336 (bispecific antibody)
heavy 1: B2 heavy 1
heavy 2: B2 heavy 2 with N32H, V55A, R57S, A59D, N264H, V287A, R289S, A291D
light: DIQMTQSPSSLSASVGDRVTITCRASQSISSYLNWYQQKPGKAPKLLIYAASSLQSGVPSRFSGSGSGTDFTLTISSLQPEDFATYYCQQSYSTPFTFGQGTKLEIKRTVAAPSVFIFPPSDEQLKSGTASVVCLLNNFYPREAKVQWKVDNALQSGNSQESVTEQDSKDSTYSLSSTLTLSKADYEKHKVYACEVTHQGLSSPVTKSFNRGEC
notes: as for B4
Kd [2]: 440 nM

B8: XENP34732 (bispecific antibody)
heavy: EVQLLESGGGLVQPGGSLRLSCAASGFTFSNYYMAWVRQAPGKGLEWVSSISTGGGSTYYRDSVKGRFTISRDNSKSTLYLQMNSLRAEDTAVYYCTTDLSAIAATPFAYWGQGTLVTVSSASTKGPSVFPLAPSSKSTSGGTAALGCLVKDYFPEPVTVSWNSGALTSGVHTFPAVLQSSGLYSLSSVVTVPSSSLGTQTYICNVNHKPSDTKVDKKVEPKSCDKTHTCPPCPAPPVAGPSVFLFPPKPKDTLMISRTPEVTCVVVDVKHEDPEVKFNWYVDGVEVHNAKTKPREEEYNSTYRVVSVLTVLHQDWLNGKEYKCKVSNKALPAPIEKTISKAKGQPREPQVYTLPPSREEMTKNQVSLTCDVSGFYPSDIAVEWESDGQPENNYKTTPPVLDSDGSFFLYSKLTVDKSRWEQGDVFSCSVLHEALHSHYTQKSLSLSPGK
scFv-Fc: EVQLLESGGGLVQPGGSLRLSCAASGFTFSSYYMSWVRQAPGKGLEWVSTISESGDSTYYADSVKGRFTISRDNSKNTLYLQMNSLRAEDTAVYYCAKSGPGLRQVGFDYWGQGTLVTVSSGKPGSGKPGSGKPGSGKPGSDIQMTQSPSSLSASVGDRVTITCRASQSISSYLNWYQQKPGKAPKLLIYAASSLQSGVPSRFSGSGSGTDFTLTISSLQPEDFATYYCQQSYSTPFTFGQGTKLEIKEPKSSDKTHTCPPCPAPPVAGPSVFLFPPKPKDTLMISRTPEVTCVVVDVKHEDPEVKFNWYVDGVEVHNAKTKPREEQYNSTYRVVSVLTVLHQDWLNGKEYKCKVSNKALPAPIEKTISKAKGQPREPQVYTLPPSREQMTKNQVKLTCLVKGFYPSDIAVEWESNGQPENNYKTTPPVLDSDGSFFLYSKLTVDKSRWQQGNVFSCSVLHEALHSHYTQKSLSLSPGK
light: DIQMTQSPSSLSASVGDRVTITCRASQNIYTSLAWYQQKPGKAPKLLIYNAHSLQTGIPSRFSGSGSGADFTLTISSLQPEDFATYFCQQYYSGLTFGSGTKLEIKRTVAAPSVFIFPPSDEQLKSGTASVVCLLNNFYPREAKVQWKVDNALQSGNSQESVTEQDSKDSTYSLSSTLTLSKADYEKHKVYACEVTHQGLSSPVTKSFNRGEC
notes: as for B1
binding result [1]: binds

More lines, now with the values ahead:

binding result [3]: binds
B3: XENP34717 (bispecific antibody)
heavy 1: B2 heavy 1
heavy 2: QVQLVQSGAEVKKPGASVKVSCKASGYIFTNNYMHWVRQAPGQGLEWMGIISPSVGRTAYAQKFQGRVTMTRDTSTSTVYMELSSLRSEDTAVYYCARGGGSSPRLDYWGQGTLVTVSSASTKGPSVFPLAPSSKSTSGGTAALGCLVKDYFPEPVTVSWNSGALTSGVHTFPAVLQSSGLYSLSSVVTVPSSSLGTQTYICNVNHKPSNTKVDKKVEPKSCDKTHTCPPCPAPPVAGPSVFLFPPKPKDTLMISRTPEVTCVVVDVKHEDPEVKFNWYVDGVEVHNAKTKPREEQYNSTYRVVSVLTVLHQDWLNGKEYKCKVSNKALPAPIEKTISKAKGQPREPQVYTLPPSREQMTKNQVKLTCLVKGFYPSDIAVEWESNGQPENNYKTTPPVLDSDGSFFLYSKLTVDKSRWQQGNVFSCSVMHEALHNHYTQKSLSLSPGK
light: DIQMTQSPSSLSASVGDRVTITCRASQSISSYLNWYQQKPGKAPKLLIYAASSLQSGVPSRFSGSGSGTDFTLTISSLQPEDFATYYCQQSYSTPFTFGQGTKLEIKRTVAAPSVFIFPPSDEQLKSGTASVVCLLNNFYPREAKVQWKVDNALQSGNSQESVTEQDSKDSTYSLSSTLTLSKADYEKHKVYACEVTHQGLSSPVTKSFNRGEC
notes: copies: 1 + 1 + 2

Kd [2]: 270 nM
B5: XENP35612 (bispecific antibody)
heavy 1: B2 heavy 1 with E53G
heavy 2: B2 heavy 2
light: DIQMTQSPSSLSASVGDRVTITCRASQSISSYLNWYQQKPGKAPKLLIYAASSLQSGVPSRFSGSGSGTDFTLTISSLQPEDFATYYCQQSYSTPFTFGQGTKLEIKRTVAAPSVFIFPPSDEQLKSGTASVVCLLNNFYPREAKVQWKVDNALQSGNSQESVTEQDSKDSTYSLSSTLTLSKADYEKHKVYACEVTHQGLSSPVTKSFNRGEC
notes: as for B4

binding result [1]: binds
B7: XENP35151 (bispecific antibody)
heavy: EVQLVESGGGLVKPGGSLRLSCAASGFSFSVGYYMCWVRQAPGKGLEWVSCIYVGSGSSGSTYYASVKGRFTISSDTAKTSVYLQMNSLRAEDTAVYFCARTAGSDWRLDLWGQGTLVTVSSASTKGPSVFPLAPSSKSTSGGTAALGCLVKDYFPEPVTVSWNSGALTSGVHTFPAVLQSSGLYSLSSVVTVPSSSLGTQTYICNVNHKPSDTKVDKKVEPKSCDKTHTCPPCPAPPVAGPSVFLFPPKPKDTLMISRTPEVTCVVVDVKHEDPEVKFNWYVDGVEVHNAKTKPREEEYNSTYRVVSVLTVLHQDWLNGKEYKCKVSNKALPAPIEKTISKAKGQPREPQVYTLPPSREEMTKNQVSLTCDVSGFYPSDIAVEWESDGQPENNYKTTPPVLDSDGSFFLYSKLTVDKSRWEQGDVFSCSVLHEALHSHYTQKSLSLSPGK
scFv-Fc: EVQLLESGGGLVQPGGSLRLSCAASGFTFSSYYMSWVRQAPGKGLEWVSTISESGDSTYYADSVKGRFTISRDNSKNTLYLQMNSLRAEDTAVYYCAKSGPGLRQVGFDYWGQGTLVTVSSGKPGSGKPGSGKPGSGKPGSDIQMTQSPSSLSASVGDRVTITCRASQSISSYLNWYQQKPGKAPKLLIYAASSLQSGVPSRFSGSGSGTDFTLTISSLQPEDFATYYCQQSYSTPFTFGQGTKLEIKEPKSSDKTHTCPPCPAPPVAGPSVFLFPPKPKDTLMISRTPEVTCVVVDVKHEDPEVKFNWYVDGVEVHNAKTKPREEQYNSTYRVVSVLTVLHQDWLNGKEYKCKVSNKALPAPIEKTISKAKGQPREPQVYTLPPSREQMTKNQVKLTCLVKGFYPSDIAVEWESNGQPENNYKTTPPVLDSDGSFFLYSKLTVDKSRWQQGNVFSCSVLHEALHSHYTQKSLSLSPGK
light: DIVMTQSPSSLSASVGDRVTITCRASQSIANELSWYQQKPGKPPKLLIYRASTLTSGVPSRFKGSGSGTDFTLTISSLQPEDFATYYCQSTYNGRAIGFGGGTKVEIKRTVAAPSVFIFPPSDEQLKSGTASVVCLLNNFYPREAKVQWKVDNALQSGNSQESVTEQDSKDSTYSLSSTLTLSKADYEKHKVYACEVTHQGLSSPVTKSFNRGEC
notes: as for B1

— patent publication US20220098306A1 (Xencor, published 2022)
